Substitutions are numbered along the chain they refer to. Where two headings read alike, the source gives them in different places.
B1: Fab 6 (Fab, V domains shown)
VH: EVQLVESGGGLVQPGGSLRLSCAASGFNVYYYYIHWVRQAPGKGLEWVASISPYYGYTSSYADSVKGRFTISADTSKNTAYLQMNSLRAEDTAVYYCARWSYDQSMSYKSGMDYWGQGTLVTVSS
VL: DIQMTQSPSSLSASVGDRVTITCRASQSVSSAVAWYQQKPGKAPKLLIYSASSLYSGVPSRFSGSRSGTDFTLTISSLQPEDFATYYCQQYSYSLVTFGQGTKVEIKR
B2: Fab 20 (Fab, V domains shown)
VH: EVQLVESGGGLVQPGGSLRLSCAASGFNISYSSIHWVRQAPGKGLEWVASIYSYSGYTSYADSVKGRFTISADTSKNTAYLQMNSLRAEDTAVYYCARSYWYHVGSWHYTGMDYWGQGTLVTVSS
VL: B1 VL with Y91S, Y93S, V96I

Key:
Assay in all cases: SPR
[1] = target: T1, C-terminal domain of Tai Forest Ebola virus Nucleoprotein (NP^Ct)
[2] = target: T2, C-terminal domain of Bundibugyo Ebola virus Nucleoprotein (NP^Ct)
[3] = target: T3, C-terminal domain of Zaire Ebola virus Nucleoprotein (NP^Ct) (UniProt P18272 641-739)
[4] = target: C-terminal domain of Sudan Ebola virus Nucleoprotein (NP^Ct) (UniProt Q9QP77 641-738)
[5] = target: T2, C-terminal domain of Bundibugyo Ebola …; remark: listed apart in the source
[6] = target: C-terminal domain of Reston Ebola virus Nucleoprotein (NP^Ct) (UniProt Q8JPY1 641-739)
[7] = target: T3, C-terminal domain of Zaire Ebola virus …; remark: listed apart in the source
[8] = target: T1, C-terminal domain of Tai Forest Ebola …; remark: listed apart in the source

Row | Binder | Kd [1] [nM] | Kd [2] [nM] | Kd [3] [nM] | Kd [4] [nM] | Kd [5] [nM] | Kd [6] [nM] | Kd [7] [nM] | Kd [8] [nM]
1 | B1 | 4.68 | 3.95 | 0.687 | – | – | – | – | –
2 | B2 | – | – | – | 20.3 | 16.6 | 11.7 | 4.14 | 3.05

Reference: US20180334494A1 (published 2018)
